According to patent US8258279B2, “Isolated nucleic acids encoding soluble corticotropin releasing factor receptor type 2 (sCRFR2) polypeptides” (Research Development Foundation, priority 2005, dated 2012):
“Also recorded” adds a separate entry of the source.

Assays:
[1] = tested on: anti-sCRFR2α serum; assay: Immunohistochemistry, specificity by preincubation of antiserum with synthetic immunogen; conditions: mouse brain sections; antiserum preincubated with immunogen
Protocol: Immunohistochemistry. Adult male C57B6J mice (Jackson Laboratories) and Sprague-Dawley albino rats (Harlan Sprague-Dawley) were anesthetized with chloral hydrate (350 mg/kg, ip) and perfused with Zamboni's fixative (Bittencourt et al., 1999), followed by 0-4 hr. post-fixation. Regularly spaced (1-in-4) series of 30 μm thick frontal sections throughout the brain were prepared for nickel-enhanced avidin-biotin-immunoperoxidase localization of sCRFR2α-ir using Vectastain Elite reagents (Vector Laboratories, Burlingame, Calif.). Primary sCRFR2α antisera were adsorbed against the carrier, affinity purified and used at a dilution of 1:2000. Specificity of immunostaining was evaluated using primary antisera preincubated overnight at 4° C. with 0-300 μM synthetic immunogen. Labeling was also evaluated in mutant mice deficient in either or both CRFRs (Smith et al., 1998; Bale et al. 2000). Detailed description of the fluorescence immunocytochemical analysis of COSM6 cells transfected with sCRFR2α can be found in the supporting text.
Further support for the specificity of labeling are observations that all immunolocalizations persisted in CRFR1- and/or CRFR2-deleted mice; note that the targeting construct used for generating each of the existing receptor-knockout lines would be expected to spare the sCRFR2α coding region (Smith et al., 1998; Timpl et al., 1998; Bale et al., 2000).

[2] = tested on: activation by Ucn 1 of ERK1/2-p42, 44 in CATH.a cells; assay: Extracellular receptor kinase 1/2 (ERK1/2) assay; format: cell-based; conditions: Ucn 1 10 nM, sCRFR2α 0.4 or 4 nM, 5 min
Protocol: Luciferase reporter containing a fragment of the CRE promoter of the EVX1 gene was cotransfected into 293T cells with CRFR2α expression vectors. Luciferase activity was measured following treatment (4 h) with 0.0001-100 nM Ucn 1 or CRF, in the presence or absence of 0.1 nM sCRFR2α. Assays were normalized to cotransfected β-galactosidase activity. The representative means of six replicates from one experiment is shown in the graph. FIG. 5B, Equilibrated CATH.a cells were treated with Ucn 1 (10 nM) with or without sCRFR2α (0.4 or 4 nM). After 5 min of receptor stimulation, cell lysates were harvested and subjected to SDS-PAGE immunoblot analysis using phospho-ERK1/2-p42, 44 antibody and ERK2-p44 antibody. The ERK activation was calculated by normalizing the levels of phosphorylated ERK1/2-p42, 44 to total ERK2-p44. […]
Extracellular receptor kinase 1/2 (ERK1/2) assay. […] Cells were harvested immediately and analyzed for phosphorylated ERK1/2-p42, 44, as previously described (Chen et al., 2005).
(§1) To delineate the possible functions of sCRFR2α, the inventors studied its effects on signaling by CRF family ligands. […] Because the urocortins activate MAPK signaling (Brar et al., 2002), the inventors measured the ability of sCRFR2α to inhibit the activation by Ucn 1 of ERK1/2-p42, 44 in CATH.a cells, which endogenously express CRFR1 and CRFR2α.

[3] = tested on: cAMP response to Ucn 1 and CRF in HEK293T cells transfected with mouse CRFR2α; assay: CRE-luciferase reporter (EVX1) assay of the cAMP response; format: cell-based; conditions: 4 h, 0.0001-100 nM Ucn 1 or CRF, 0.1 nM sCRFR2α
Protocol: Luciferase reporter containing a fragment of the CRE promoter of the EVX1 gene was cotransfected into 293T cells with CRFR2α expression vectors. Luciferase activity was measured following treatment (4 h) with 0.0001-100 nM Ucn 1 or CRF, in the presence or absence of 0.1 nM sCRFR2α. Assays were normalized to cotransfected β-galactosidase activity. The representative means of six replicates from one experiment is shown in the graph. FIG. 5B, Equilibrated CATH.a cells were treated with Ucn 1 (10 nM) with or without sCRFR2α (0.4 or 4 nM). After 5 min of receptor stimulation, cell lysates were harvested and subjected to SDS-PAGE immunoblot analysis using phospho-ERK1/2-p42, 44 antibody and ERK2-p44 antibody. The ERK activation was calculated by normalizing the levels of phosphorylated ERK1/2-p42, 44 to total ERK2-p44. The representative of means of triplicates from one experiment is shown in the graph. *, P<0.05 vs. vehicle treatment, #, P<0.05 vs. Ucn 1 treatment, UD=undetected.
Transient transfections and luciferase assay. […]
as §1

[4] = tested on: rabbit anti-sCRFR2α (aa 113-143); assay: sCRFR2α radioimmunoassay (RIA); format: binding; conditions: anti-sCRFR2α at 1/300,000; synthetic sCRFR2α (113-143) as standard
Excerpt: FIGS. 3A-3C. A highly specific antiserum raised in rabbit using a synthetic peptide fragment encoding the unique C-terminal tail of mouse sCRFR2α protein (aa 113-143) was used to develop a sCRFR2α radioimmunoassay, used for immunoblot analysis and for immunocytochemistry. FIG. 3A is a western immunoblot of mouse sCRFR2α isolated from the medium of COS-M6 cells transiently transfected with sCRFR2αFLAG construct reacted with anti-sCRFR2α-(113-143) serum (left panel) or monoclonal M2 anti-FLAG (right panel). Lanes 1, 2, and 3 correspond to 0.1, 1.0, and 10 μl of sCRFR2α-FLAG extract, respectively. FIG. 3B, Displacement of [^125I]Tyr^113 sCRFR2α (aa 113-143) binding to rabbit anti-sCRFR2α (aa113-143) by synthetic sCRFR2α (aa 113-143) and by purified COS-M6 expressed sCRFR2α (aa 113-143)-FLAG. FIG. 3C, Immunofluorescence staining of COS-M6 cells transiently transfected with mouse sCRFR2α construct visualized with the anti-sCRFR2α (aa 113-143) serum followed by a Cy3-conjugated secondary antibody (FIG. 3C(b)). The slides were counterstained with DAPI to visualize both transfected and non transfected cells (FIG. 3C(a)).
Radio-Immuno Assays (RIA). […]

[5] = biological target: T1, rUcn1 (Mus musculus, UniProt Q60748); assay: Radioreceptor assay, competitive displacement of [125I-DTyr0]-astressin bound to sCRFR2α; format: binding; conditions: range in parentheses in the next cell
T1 construct: A cDNA corresponding to amino acids 20-143 was generated by PCR; made in house; host or cells: E. coli
Protocol: (§2) Radioreceptor assays. The soluble protein, purified either from COS M6 cell media or E. coli was incubated in triplicate wells with [^125I-DTyr^O]-astressin and increasing concentration of unlabeled peptides as described (Perrin et al., 2003).
(§3) The interactions of the sCRFR2α with CRF family ligands were assessed by radioreceptor assay using competitive displacement of [^125I-D Tyr^o]-astressin bound to sCRFR2α.

[6] = biological target: T2, CRF (Mus musculus, UniProt Q60748); assay: as above; format: binding; conditions: range in parentheses in the next cell
T2 construct: A cDNA corresponding to amino acids 20-143 was generated by PCR; made in house; host or cells: E. coli
Protocol: as §2, §3

[7] = biological target: T3, mUcn2 (Mus musculus, UniProt Q60748); assay: as above; format: binding; conditions: range in parentheses
T3 construct: A cDNA corresponding to amino acids 20-143 was generated by PCR; made in house; host or cells: E. coli
Protocol: as §2, §3

[8] = biological target: T4, Astressin (Mus musculus, UniProt Q60748); assay: as above; format: binding; conditions: range in parentheses in the next cell
T4 construct: A cDNA corresponding to amino acids 20-143 was generated by PCR; made in house; host or cells: E. coli
Protocol: as §2, §3

[9] = biological target: T5, mUcn3 (Mus musculus, UniProt Q60748); assay: as above; format: binding
T5 construct: A cDNA corresponding to amino acids 20-143 was generated by PCR; made in house; host or cells: E. coli
Protocol: as §2, §3

Molecule	concentration blocking immunolabeling throughout the brain on pre-incubation of the antiserum [1]	inhibition of induction of phosphorylated ERK by Ucn 1 [2]	inhibition of the cAMP response to Ucn 1 and CRF (CRE luciferase activity) [3]	EC50 in sCRFR2α RIA [4]	Inhibitory binding constants, Ki, rUcn1 [5]	Inhibitory binding constants, Ki, CRF [6]	Inhibitory binding constants, Ki, mUcn2 [7]	Inhibitory binding constants, Ki, Astressin [8]	Inhibitory binding constants, Ki, mUcn3 [9]
sCRFR2α (113-143): synthetic peptide fragment encoding the unique C-terminal tail (aa 113-143) of mouse sCRFR2α, used as immunogen and RIA standard (YRIALIVNYLGHCVSVVALVAAFLLFLVLRS; soluble splice isoform sCRFR2alpha; UniProt Q60748 113-143, looked up, fragment)	≥ 30 µM								
sCRFR2α: 143 amino acid soluble splice variant of mouse CRF receptor type 2α lacking exon six (protein) MDAALLLSLLEAQLQPGAGRRAAPGRLGSAPGPRRSLHLLQHDLGPDRDLLATERTRSPSRETVPRVLQWHQVQHDPECLQRVPGERDLGLKGQLLTLRTHFG		inhibits the induction of phosphorylated ERK; also recorded: interferes with the induction	inhibit, in a dose dependent manner; also recorded: interferes with the induction of cAMP	~5 pg per tube	nanomolar affinities	nanomolar affinities	much lower	nanomolar affinities	much lower
